We go through two substances from publication doi:10.1101/677500.

In experiment [1] the target is EhPKDL-FITC (Entamoeba histolytica). The experiment can be described thus: other fluorescence titration.
The target of experiment [2] is GST-EhPKDL (Entamoeba histolytica Protein kinase D like kinase, recombinant) (Entamoeba histolytica). Briefly: SEC. On the technique in general: Size exclusion chromatography separates by hydrodynamic size, large species first.

actin-TRITC (natural protein): the stoichiometry N (commonly a count of units in the complex or per binding partner) in experiment [1] was 1 molar ratio.
For “GST-EhPKDL (Entamoeba histolytica Protein kinase D like kinase, recombinant) (enzyme)”, in experiment [2], the stoichiometry N came out at 2.
